Measured values published in publication PMC4640858.

Target: QsdR (Quorum sensing degradation Regulation) wild type, transcriptional regulator of the TetR/FabR family (Rhodococcus erythropolis R138)
Experiment: SEC; gel filtration Superdex 200 26/60, buffer A (50 mM Tris-HCl pH 8, 150 mM NaCl); molecular mass estimate 44 kDa

With “QsdR (Quorum sensing degradation Regulation) wild type, transcriptional regulator of the TetR/FabR family (natural protein)” the stoichiometry N was 2.
